US20090203610A1, “METHODS OF TREATING OBESITY OR DIABETES USING NT-4/5” (RINAT NEUROSCIENCE CORPORATION, priority 2004, published 2009)

Key:
Type in all cases: in vivo
[1] = tested on: db/db mice; assay: Blood glucose levels in db/db mice (Example 1)
Method: Administration of NT-4/5 and reference substances: Rosiglitazone (3 mg/kg, Sequoia Research Products Ltd., UK), a thiazolidinedione compound for the therapy of type 2 diabetes, was used in the present experiment as a reference. Phosphate buffer saline was used as vehicle in this experiment. NT-4/5 was obtained from Genentech.
(§1) A difference was considered significant for p<0.05.

[2] = tested on: db/db mice; assay: HbA1c in db/db mice (Example 1)
Method: as §1
HbA1c levels were determined using an HbA1c kit (ref. 650262, Beckman Coulter, France) and a Synchron CX4 synchronizer. HbA1c is an indicator for blood glucose control over the last 2-3 months. The normal level of HbA1c in C57BL/6J mouse (determined by measuring 8 normal healthy C57BL/6J mice) was about 3.5%.

[3] = tested on: db/db mice; assay: Blood triglyceride levels in db/db mice (Example 1)
Method: Test animals: 24 female 10-12 weeks old db/db mice (C57BL/Ks J Rj-db/db, Janvier, France), weighing in the target range of 40-50 g, were used in this study. […] Upon receipt at animal facilities, they were housed 4 per cage covered with filtered caps and at least a 5-day acclimation period was observed.
The mice were divided into three groups of 8 mice each (groups 1-3). Each group was treated with vehicle (PBS) subcutaneously (s.c.), 3 mg/kg Rosiglitazone orally (p.o.), or 20 mg/kg NT-4/5 subcutaneously (s.c.). From day 1 to day 5 (T1-T5) and then from day 8 to day 12 (T8-T12), the mice in groups 2 and 3 were dosed once daily for 5 consecutive days, with a volume of 10 ml/kg.
Collection of samples for analysis: One day before beginning the treatment (T0), non fasted db/db mice were weighed and blood samples were collected through the retro-orbital plexus (about 300 μL/mouse) under isoflurane anesthesia. Similarly, at day 5 (T5), day 12 (T12), day 19 (T19) and day 26 (T26), two hours after the last administration, blood samples were collected through the retro-orbital plexus under isoflurane anesthesia in non fasted mice. […] An aliquot of serum was used for measuring glucose levels, the remaining was frozen until use.
Analysis of blood samples in db/db mice: Pre- and post dose serum levels of glucose, HbA1c, cholesterol and triglycerides, insulin, and non esterified fatty acids (NEFA), as well as aspirate amino-transferase (AST) and alanine amino-transferase activities (ALT) activities, were determined at different time points, as described further herein. At each time point and for each parameter, a mean % of the effect was calculated according to the following formula: ((T final−T initial)/T initial)*100. Statistical analysis was consistent in a one-way analysis of variance followed by multiple comparisons versus the vehicle group (Dunnett's test) on final values. In case the equal variance test fails, a Kruskall-Wallis one-way analysis of variance on ranks was conducted. A difference was considered significant for p<0.05.

[4] = tested on: db/db mice; assay: Total blood cholesterol levels in db/db mice (Example 1)
Method: as §1
The blood triglyceride level and the total blood cholesterol level were determined with a triglyceride assay kit (ref 445850, Beckman Coutler, France) and a total cholesterol kit (ref 467825, Beckman Coutler, France), respectively, using a Synchron CX4 analyzer.

[5] = tested on: db/db mice; assay: Serum nonesterified fatty acids (NEFA) in db/db mice (Example 1)
Method: as §1
Serum nonesterified fatty acids (NEFA) levels were determined by calorimetric method using a non esterified fatty acids kit (ref. FA 15, Randox, France).

[6] = tested on: db/db mice; assay: Blood insulin level by ELISA in db/db mice (Example 1); parameters: blood insulin level at T5 / blood insulin level at T12 / blood insulin level at T19 / blood insulin level at T26: unit not given here
Method: as §1
The blood insulin level was determined by ELISA using an Insulin ELIT Plus kit (ref. INSRAT01-8N, Eurobio, France).

[7] = tested on: db/db mice; assay: Body weight of db/db mice (Example 1); conditions: for body weight, mean / body weight expressed as % of baseline, mean: NT-4/5 20 mg/kg s.c., Rosiglitazone 3 mg/kg p.o.
Method: (§2) Throughout the experiment period (T1-T26), daily individual body weights as well as food intake per cage were measured.

[8] = tested on: db/db mice; assay: Food intake of db/db mice (Example 1); conditions: for food intake, mean: NT-4/5 20 mg/kg s.c., Rosiglitazone 3 mg/kg p.o.
Method: as §2

[9] = day 0, before treatment, NT-4/5 20 mg/kg s.c., Rosiglitazone 3 mg/kg p.o.
[10] = day 5, NT-4/5 20 mg/kg s.c., Rosiglitazone 3 mg/kg p.o.
[11] = day 5 vs day 0, NT-4/5 20 mg/kg s.c., Rosiglitazone 3 mg/kg p.o.
[12] = day 12, NT-4/5 20 mg/kg s.c., Rosiglitazone 3 mg/kg p.o.
[13] = day 12 vs day 0, NT-4/5 20 mg/kg s.c., Rosiglitazone 3 mg/kg p.o.
[14] = day 19 vs day 0, NT-4/5 20 mg/kg s.c., Rosiglitazone 3 mg/kg p.o.
[15] = day 26 vs day 0, NT-4/5 20 mg/kg s.c., Rosiglitazone 3 mg/kg p.o.
[16] = day 26, NT-4/5 20 mg/kg s.c., Rosiglitazone 3 mg/kg p.o.
[17] = day 19, NT-4/5 20 mg/kg s.c., Rosiglitazone 3 mg/kg p.o.

B1: NT-4/5: mature human neurotrophin-4/5 (SEQ ID NO:1), obtained from Genentech or produced in E. coli (protein, listed as Homo sapiens)
chain: GVSETAPASRRGELAVCDAVSGWVTDRRTAVDLRGREVEVLGEVPAAGGSPLRQYFFETRCKADNAEEGGPGAGGGGCRGVDRRHWVSECKAKQSYVRALTADAQGRVGWRWIRIDTACVCTLLSRTGRA
In the case of B1, the “blood glucose levels T0” value [1, 9] is reported as 36.95 mM, the “blood glucose levels T5” value [1, 10] is reported as 15.78 mM and the “blood glucose % effect T5-T0” value [1, 11] is reported as −56.4%. The “blood glucose levels T12” value [1, 12] was 13.56 mM, the “blood glucose % effect T12-T0” value [1, 13] was −62.6% and the “blood glucose levels T19” value ([1]; day 19 (dosing stopped day 12), NT-4/5 20 mg/kg s.c., Rosiglitazone 3 mg/kg p.o.) was 12.65 mM. For the same molecule, the “blood glucose % effect T19-T0” value [1, 14] was −65.2%, the “blood glucose levels T26” value ([1]; day 26 (dosing stopped day 12), NT-4/5 20 mg/kg s.c., Rosiglitazone 3 mg/kg p.o.) was 22.50 mM and the “blood glucose % effect T26-T0” value [1, 15] was −37.9%. For the same molecule, the “level of blood glucose lower than that of vehicle treated mice” value ([1]; throughout the rest of the study, 20 mg/kg s.c.) was “at least 50%”, the “HbA1c level decrease at T26” value ([2]; T26 as compared to T0) was 30.4% and the “HbA1c T0” value [2, 9] was 5.81%. For the same molecule, the “HbA1c T12” value [2, 12] was 5.82%, the “HbA1c % effect T12-T0” value [2, 13] was −0.2% and the “HbA1c T26” value [2, 16] was 4.08%. The “HbA1c % effect T26-T0” value [2, 15] was −30.4%, the “triglycerides levels T0” value [3, 9] was 1.51 mM and the “triglycerides levels T5” value [3, 10] was 0.73 mM. For the same molecule, the “triglycerides % effect T5-T0” value [3, 11] was −48.8%, the “triglycerides levels T12” value [3, 12] was 0.84 mM and the “triglycerides % effect T12-T0” value [3, 13] was −40.9%. For the same molecule, the “triglycerides levels T19” value [3, 17] was 1.07 mM, the “triglycerides % effect T19-T0” value [3, 14] was −28.0% and the “triglycerides levels T26” value [3, 16] was 1.13 mM. The “triglycerides % effect T26-T0” value [3, 15] was −25.2%, the “blood triglyceride levels relative to normal level” value ([3]; normal level 1.2±0.08 mM in C57BL/6J mice) was “reduced to below normal level” and the “blood cholesterol level decrease” value ([4]; 20 mg/kg s.c., not statistically significant) was 20-30%. The “cholesterol levels T0” value [4, 9] was 3.42 mM, the “cholesterol levels T5” value [4, 10] was 2.85 mM and the “cholesterol % effect T5-T0” value [4, 11] was −16.4%. The “cholesterol levels T12” value [4, 12] was 2.66 mM, the “cholesterol % effect T12-T0” value [4, 13] was −23.7% and the “cholesterol levels T19” value [4, 17] was 2.40 mM. The “cholesterol % effect T19-T0” value [4, 14] was −31.7%, the “cholesterol levels T26” value [4, 16] was 2.67 mM and the “cholesterol % effect T26-T0” value [4, 15] was −23.5%. The “effect on blood level of NEFA” value ([5]; 20 mg/kg s.c.) was “did not seem to have affected the blood level of NEFA significantly”, the “NEFA levels T0” value [5, 9] was 0.788 mM and the “NEFA levels T5” value [5, 10] was 0.780 mM. The “NEFA % effect T5-T0” value [5, 11] was −0.1%, the “NEFA levels T12” value [5, 12] was 0.679 mM and the “NEFA % effect T12-T0” value [5, 13] was −8.5%. For the same molecule, the “NEFA levels T19” value [5, 17] was 0.521 mM, the “NEFA % effect T19-T0” value [5, 14] was −30.4% and the “NEFA levels T26” value [5, 16] was 0.411 mM. For the same molecule, the “NEFA % effect T26-T0” value [5, 15] was −44.5%, the “blood insulin level at T5” value ([6]; T5) was 1.84 and the “blood insulin level at T12” value ([6]; T12) was 0.91. The “blood insulin level at T19” value ([6]; T19) was 7.6, the “blood insulin level at T26” value ([6]; T26) was 11.58 and the “insulin levels T0” value [6, 9] was 7.04 nM. The “insulin levels T5” value [6, 10] was 1.84 nM, the “insulin % effect T5-T0” value [6, 11] was −72.0% and the “insulin levels T12” value [6, 12] was 0.91 nM. For the same molecule, the “insulin % effect T12-T0” value [6, 13] was −84.5%, the “insulin levels T19” value [6, 17] was 7.60 nM and the “insulin % effect T19-T0” value [6, 14] was 17.1%. For the same molecule, the “insulin levels T26” value [6, 16] was 11.58 nM, the “insulin % effect T26-T0” value [6, 15] was 73.1% and the “insulin level relative to normal level” value ([6]; normal about 0.118±0.010 nM) was “not reduced to normal level”. For the same molecule, the “body weight during treatment” value ([7]; 20 mg/kg s.c.) was “gradually lost weight during the treatment”, the “body weight, mean” value ([7]; Day 0) was 41.8 g and the “body weight expressed as % of baseline, mean” value (“body weight expressed as %” for short) ([7]; Day 1) was 97.8 % of baseline. For the same molecule, the “body weight, mean” value ([7]; Day 1) was 40.8 g, the “body weight expressed as %” value ([7]; Day 2) was 95.7 % of baseline and the “body weight, mean” value ([7]; Day 2) was 40.0 g. For the same molecule, the “body weight expressed as %” value ([7]; Day 3) was 94.6 % of baseline, the “body weight, mean” value ([7]; Day 3) was 39.5 g and the “body weight expressed as %” value ([7]; Day 4) was 92.9 % of baseline. For the same molecule, the “body weight, mean” value ([7]; Day 4) was 38.8 g, the “body weight expressed as %” value ([7]; Day 5) was 91.6 % of baseline and the “body weight, mean” value ([7]; Day 5) was 38.3 g. The “body weight expressed as %” value ([7]; Day 6) was 88.5 % of baseline, the “body weight, mean” value ([7]; Day 6) was 37.0 g and the “body weight expressed as %” value ([7]; Day 7) was 87.4 % of baseline. The “body weight, mean” value ([7]; Day 7) was 36.5 g, the “body weight expressed as %” value ([7]; Day 8) was 87.3 % of baseline and the “body weight, mean” value ([7]; Day 8) was 36.5 g. For the same molecule, the “body weight expressed as %” value ([7]; Day 9) was 86.5 % of baseline, the “body weight, mean” value ([7]; Day 9) was 36.6 g and the “body weight expressed as %” value ([7]; Day 10) was 85.4 % of baseline. The “body weight, mean” value ([7]; Day 10) was 36.1 g, the “body weight expressed as %” value ([7]; Day 11) was 84.1 % of baseline and the “body weight, mean” value ([7]; Day 11) was 35.6 g. For the same molecule, the “body weight expressed as %” value ([7]; Day 12) was 83.3 % of baseline, the “body weight, mean” value ([7]; Day 12) was 35.2 g and the “body weight expressed as %” value ([7]; Day 13) was 80.8 % of baseline. For the same molecule, the “body weight, mean” value ([7]; Day 13) was 34.2 g, the “body weight expressed as %” value ([7]; Day 14) was 79.8 % of baseline and the “body weight, mean” value ([7]; Day 14) was 33.7 g. For the same molecule, the “body weight expressed as %” value ([7]; Day 15) was 80.1 % of baseline, the “body weight, mean” value ([7]; Day 15) was 33.9 g and the “body weight expressed as %” value ([7]; Day 18) was 83.1 % of baseline. For the same molecule, the “body weight, mean” value ([7]; Day 18) was 35.1 g, the “body weight expressed as %” value ([7]; Day 19) was 84.4 % of baseline and the “body weight, mean” value ([7]; Day 19) was 35.7 g. For the same molecule, the “body weight expressed as %” value ([7]; Day 20) was 84.1 % of baseline, the “body weight, mean” value ([7]; Day 20) was 35.6 g and the “body weight expressed as %” value ([7]; Day 21) was 85.6 % of baseline. For the same molecule, the “body weight, mean” value ([7]; Day 21) was 36.2 g, the “body weight expressed as %” value ([7]; Day 22) was 86.4 % of baseline and the “body weight, mean” value ([7]; Day 22) was 36.5 g. The “body weight expressed as %” value ([7]; Day 25) was 91.7 % of baseline, the “body weight, mean” value ([7]; Day 25) was 38.8 g and the “body weight expressed as %” value ([7]; Day 26) was 93.1 % of baseline. The “body weight, mean” value ([7]; Day 26) was 39.4 g, the “food intakes” value ([8]; 20 mg/kg s.c.) was “dramatically suppressed” and the “food intake, mean” value ([8]; Day 1) was 104.1 g/kg/day. The “food intake, mean” value ([8]; Day 2) was 56.9 g/kg/day, the “food intake, mean” value ([8]; Day 3) was 90.7 g/kg/day and the “food intake, mean” value ([8]; Day 4) was 68.6 g/kg/day. The “food intake, mean” value ([8]; Day 5) was 44.1 g/kg/day, the “food intake, mean” value ([8]; Day 6) was 38.5 g/kg/day and the “food intake, mean” value ([8]; Day 7) was 43.1 g/kg/day. The “food intake, mean” value ([8]; Day 8) was 63.4 g/kg/day, the “food intake, mean” value ([8]; Day 9) was 45.6 g/kg/day and the “food intake, mean” value ([8]; Day 10) was 51.8 g/kg/day. For the same molecule, the “food intake, mean” value ([8]; Day 11) was 56.2 g/kg/day, the “food intake, mean” value ([8]; Day 12) was 62.6 g/kg/day and the “food intake, mean” value ([8]; Day 13) was 42.3 g/kg/day. The “food intake, mean” value ([8]; Day 14) was 76.3 g/kg/day, the “food intake, mean” value ([8]; Day 15) was 69.9 g/kg/day and the “food intake, mean” value ([8]; Day 19) was 78.0 g/kg/day. The “food intake, mean” value ([8]; Day 20) was 79.1 g/kg/day, the “food intake, mean” value ([8]; Day 21) was 123.9 g/kg/day and the “food intake, mean” value ([8]; Day 22) was 114.4 g/kg/day. The “food intake, mean” value ([8]; Day 25) was 120.6 g/kg/day and the “food intake, mean” value ([8]; Day 26) was 116.3 g/kg/day.
